Reference: patent publication US20180155451A1 (published 2018)
Positions count from the first letter of the chain named. Names and notes keep the numbering of the source. Read-outs that look alike come from different tables or passages of the source. Each block holds one binder with its values, some of them ahead of it.

How the values were obtained:
[1] = target: T1, FcgRIIIa V extracellular domain with C-terminal His tag (human, UniProt P08637 17-208); assay: SPR (Biacore), antibody captured on chip, FcγR extracellular domain as analyte, kinetic analysis
T1 construct: extracellular domain; also called FcγRIIIa V; FcγRIIIa (V158); not shown: His tag attached to the C terminus
Experimental: (§1) Analysis of interaction between obj ective antibody and the FcγR was carried out using Biacore T100 (GE Healthcare), Biacore T200, Biacore A100, and Biacore 4000. HBS-EP+ (GE Healthcare) was used as the running buffer, and the measurement temperature was set to 25° C. Chips produced by immobilizing the antigen peptide by the amine coupling method to a Series S sensor Chip CM5 (GE Healthcare), chips produced by allowing preliminarily biotinylated antigen peptides to interact with and immobilize onto a Series S Sensor Chip SA (certified) (GE Healthcare), chips produced by immobilizing Protein L (ACTIGEN, BioVision) to Series S Sencor Chip CM5 (GE Healthcare), or chips produced by immobilizing Protein A/G (Thermo Scientific) to Series S Sencor Chip CM5 (GE Healthcare) were used. Antibodies of interest were captured onto these chips, and allowed to interact to each FcγR diluted with running buffer. To regenerate and repeatedly use the chip, the antibodies captured onto the chip were washed off by reacting 10 mM glycine-HCl, pH 1.5.

[2] = target: T2, FcgRIIIa F extracellular domain with C-terminal His tag (human, UniProt P08637 17-208); assay: as above
T2 construct: extracellular domain; also called FcγRIIIa F; FcγRIIIa (F158); not shown: His tag attached to the C terminus
Experimental: as §1

[3] = target: T3, FcgRIa extracellular domain with C-terminal His tag (human, UniProt P12314 16-292); assay: as above
T3 construct: extracellular domain; Expressed in FreeStyle293 cells; used as analyte in Biacore; also called FcγRIa; FcγRI; not shown: His tag attached to the C terminus
Experimental: as §1

[4] = target: T4, FcgRIIb extracellular domain with C-terminal His tag (human, UniProt P31994 43-217); assay: as above
T4 construct: extracellular domain; also called FcγRIIb; not shown: His tag attached to the C terminus
T4 sequence (looked up): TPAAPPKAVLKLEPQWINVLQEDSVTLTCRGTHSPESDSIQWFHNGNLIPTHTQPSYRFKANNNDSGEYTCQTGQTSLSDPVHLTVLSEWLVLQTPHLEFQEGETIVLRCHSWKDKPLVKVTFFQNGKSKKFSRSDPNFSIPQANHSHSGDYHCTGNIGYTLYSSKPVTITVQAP
Experimental: as §1

[5] = target: T5, FcgRIIa H extracellular domain with C-terminal His tag (human, UniProt P12318 34-217); assay: as above
T5 construct: extracellular domain; also called FcγRIIa H; FcγRIIa type H; not shown: His tag attached to the C terminus
T5 sequence (looked up): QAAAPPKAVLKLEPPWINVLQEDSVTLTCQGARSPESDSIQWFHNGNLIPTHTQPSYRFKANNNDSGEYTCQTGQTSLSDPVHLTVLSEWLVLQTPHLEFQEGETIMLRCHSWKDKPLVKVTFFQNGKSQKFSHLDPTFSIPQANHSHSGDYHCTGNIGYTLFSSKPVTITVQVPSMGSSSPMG
Experimental: as §1

[6] = target: T1, FcgRIIIa V extracellular domain with …; assay: as above; remark: listed apart in the source
Experimental: as §1

[7] = target: T2, FcgRIIIa F extracellular domain with …; assay: as above; remark: listed apart in the source
Experimental: as §1

[8] = target: T6, FcgRIIa R extracellular domain with C-terminal His tag (human, UniProt P12318 34-217); assay: as above
T6 construct: extracellular domain; also called FcγRIIa R; FcγRIIa type R; not shown: His tag attached to the C terminus
T6 sequence (looked up): T5 sequence (looked up) with H134R
Experimental: as §1

[9] = target: T7, FcgRIIb (human, UniProt P31994 43-217); assay: SPR (Biacore), antibody captured on chip, FcgR extracellular domain as analyte
T7 construct: extracellular domain; Expressed in FreeStyle293 cells and purified; used as analyte in Biacore; also called FcγRIIb; CD32B; not shown: His tag attached to the C terminus
T7 sequence (looked up): T4 sequence (looked up)
Experimental: as §1

[10] = target: T8, FcgRIIIa V (human, UniProt P08637 17-208); assay: as above
T8 construct: extracellular domain; also called FcγRIIIa V; not shown: His tag attached to the C terminus
Experimental: as §1

[11] = target: T9, FcgRIIa H (human, UniProt P12318 34-217); assay: as above
T9 construct: extracellular domain; also called FcγRIIa H; FcγRIIa type H; not shown: His tag attached to the C terminus
T9 sequence (looked up): T5 sequence (looked up)
Experimental: as §1

[12] = target: T10, FcgRIIa R (human, UniProt P12318 34-217); assay: as above
T10 construct: extracellular domain; also called FcγRIIa R; FcγRIIa type R; not shown: His tag attached to the C terminus
T10 sequence (looked up): T5 sequence (looked up) with H134R
Experimental: as §1

[13] = target: T11, FcgRIa (human, UniProt P12314 16-292); assay: as above
T11 construct: extracellular domain; Expressed in FreeStyle293 cells and purified; used as analyte in Biacore; also called FcγRIa; FcγRI; not shown: His tag attached to the C terminus
Experimental: as §1

[14] = target: T12, FcgRIIIa F (human, UniProt P08637 17-208); assay: as above
T12 construct: extracellular domain; also called FcγRIIIa F; not shown: His tag attached to the C terminus
Experimental: as §1

[15] = target: T8, FcgRIIIa V; assay: as above; remark: listed apart in the source
Experimental: (§2) Similarly, H240-AK072 and L73-k0, and H240-BH076 and L73-k0 were each combined to express and prepare the homodimerized antibodies H240-AK072/L73-k0 and H240-BH076/L73-k0. The antibodies were compared for the binding to each FcgR according to the method described in Reference Example 8.
as §1

[16] = target: T12, FcgRIIIa F; assay: as above; remark: listed apart in the source
Experimental: as §2, §1

T2 sequence (P08637 17-208): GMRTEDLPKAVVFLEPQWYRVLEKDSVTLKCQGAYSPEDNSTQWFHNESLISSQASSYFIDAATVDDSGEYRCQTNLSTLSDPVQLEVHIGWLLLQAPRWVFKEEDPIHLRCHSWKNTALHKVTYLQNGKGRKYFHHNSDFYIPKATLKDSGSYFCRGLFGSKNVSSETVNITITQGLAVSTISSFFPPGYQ
T12 sequence (P08637 17-208): as above
T1 sequence (P08637 17-208 F176V): as the sequence (P08637 17-208) above, with F160V counted along it
T8 sequence (P08637 17-208 F176V limits assumed): as the sequence (P08637 17-208) above, with F160V counted along it
T11 sequence (P12314 16-292): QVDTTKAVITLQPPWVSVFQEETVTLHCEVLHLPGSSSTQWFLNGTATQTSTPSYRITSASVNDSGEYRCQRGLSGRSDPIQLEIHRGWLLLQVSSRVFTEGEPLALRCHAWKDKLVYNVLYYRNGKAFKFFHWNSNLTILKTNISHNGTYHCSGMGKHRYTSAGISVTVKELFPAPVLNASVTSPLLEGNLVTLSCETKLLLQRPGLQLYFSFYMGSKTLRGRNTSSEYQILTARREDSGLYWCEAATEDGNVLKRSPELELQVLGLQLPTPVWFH
T3 sequence (P12314 16-292): as above

Kd [1]: 1.8 nM | Kd [2]: 5.1 nM | Kd [3]: 0.14 nM | Kd [4]: 1200 nM | Kd [5]: 280 nM | Kd [6]: 1.8 nM | Kd [7]: 5.1 nM | Kd [8]: 350 nM
B1: H240-Kn061/H240-Hl071/L73-k0 (antibody, human IgG1, kappa)
heavy 1: QDQLVQSGAEVKKPGASVKVSCKASGFNIKDTYIQWVRQAPGQGLEWMGRIDPLRKQTKYREKFEGRVTITADTSTNTAYMELSSLRSEDTAVYYCVRSGREFDYWGQGTLVTVSSASTKGPSVFPLAPSSKSTSGGTAALGCLVKDYFPEPVTVSWNSGALTSGVHTFPAVLQSSGLYSLSSVVTVPSSSLGTQTYICNVNHKPSNTKVDKKVEPKSCDKTHTCPPCPAPEYYWGPSVFLFPPKPKDTLMISRTPEVTCVVVDVSDEDPEVKFNWYVDGVEVHNAKTKPREEQYNATYRVVSVLTVLHQDWLNGKEYKCKVSNKALPAPIEKTISKAKGQPREPQVCTLPPSRDELTKNQVSLWCLVKGFYPSDIAVEWESNGQPENNYKTTPPVLDSDGSFFLYSKLTVDKSRWQQGNVFSCSVMHEALHNHYTQKSLSLSP
heavy 2: QDQLVQSGAEVKKPGASVKVSCKASGFNIKDTYIQWVRQAPGQGLEWMGRIDPLRKQTKYREKFEGRVTITADTSTNTAYMELSSLRSEDTAVYYCVRSGREFDYWGQGTLVTVSSASTKGPSVFPLAPSSKSTSGGTAALGCLVKDYFPEPVTVSWNSGALTSGVHTFPAVLQSSGLYSLSSVVTVPSSSLGTQTYICNVNHKPSNTKVDKKVEPKSCDKTHTCPPCPAPELLGGPSVFLFPPKPKDTLMISRTPEVTCVVVDVSHEDPEVKFNWYVDGVEVHNAKTKPREEQYNSTYRVVSVLTVLHQDWLNGKEYKCKVSNDALPMPIEETISKAKGQPREPQVYTLPPSRCELTKNQVSLSCAVKGFYPSDIAVEWESNGQPENNYKTTPPVLDSDGSFFLVSKLTVDKSRWQQGNVFSCSVMHEALHNHYTQKSLSLSP
light: DIQMTQSPSSLSASVGDRVTITCRASQDIHKYIAWYQQKPGQAPRLLIQYTSTLQPGVPSRFSGSGSGTDYTFTISSLQPEDIATYYCLQYEQLRTFGGGTKVEIKRTVAAPSVFIFPPSDEQLKSGTASVVCLLNNFYPREAKVQWKVDNALQSGNSQESVTEQDSKDSTYSLSSTLTLSKADYEKHKVYACEVTHQGLSSPVTKSFNRGEC
notes: Kn061: L234Y/L235Y/G236W/H268D/S298A; Hl071: K326D/A330M/K334E; also called H240-Kn061/H240-HI071/L73-k0

Kd [9]: 2900 nM | Kd [10]: 0.98 nM | Kd [11]: 130 nM | Kd [12]: 460 nM | Kd [13]: 0.24 nM | Kd [14]: 3.7 nM | Kd [15]: 0.98 nM | Kd [16]: 3.7 nM
B2: H240-AK072/H240-BH076/L73-k0 (antibody, human IgG1, kappa)
heavy 1: B1 heavy 1 with D269E, C348Y, D355K, L357M, W365T, H434R
heavy 2: B1 heavy 2 with D269E, C355E, L357M, S365T, A367L, V406Y, K438E
light: B1 light
notes: Heterodimerized anti-EREG IgG1 made with D356K/H435R and K439E in place of knobs-into-holes

Kd [1]: 16 nM | Kd [2]: 77 nM
B3: H240-Kn132/H240-Hl071/L73-k0 (antibody, human IgG1, kappa)
heavy 1: B1 heavy 2 with Y348C, C355D, S365W, A367L, V406Y
heavy 2: B1 heavy 2
light: B1 light
notes: K326D/A330M/K334E in both H chains (called homodimerized); also called H240-Kn132/H240-HI071/L73-k0

Kd [1]: 86 nM | Kd [2]: 660 nM
B4: H240-Kn061/H240-Hl134/L73-k0 (antibody, human IgG1, kappa)
heavy 1: B1 heavy 1
heavy 2: B1 heavy 1 with C348Y, D355C, W365S, L367A, Y406V
light: B1 light
notes: L234Y/L235Y/G236W/H268D/S298A in both H chains (called homodimerized); also called H240-Kn061/H240-HI134/L73-k0

Kd [15]: 29 nM | Kd [16]: 300 nM
B5: H240-AK072/L73-k0 (antibody, human IgG1, kappa)
heavy: B1 heavy 1 with D269E, C348Y, D355K, L357M, W365T, H434R
light: B1 light
notes: Homodimerized anti-EREG IgG1: H240-A5E (D356K/H435R) with L234Y/L235Y/G236W/H268D/D270E/S298A in both H chains

Kd [15]: 5.3 nM | Kd [16]: 26 nM
B6: H240-BH076/L73-k0 (antibody, human IgG1, kappa)
heavy: B1 heavy 2 with D269E, C355E, L357M, S365T, A367L, V406Y, K438E
light: B1 light
notes: Homodimerized anti-EREG IgG1: H240-B3E (K439E) with D270E/K326D/A330M/K334E in both H chains
